This note sets out measurements from publication PMC11300593.

Common to all, as to test: dynamic light scattering; DLS at 20 mg/ml, 25 °C, with and without ammonium sulfate; dimer to monomers
Assay [1] has as its target 12-oxophytodienoate reductase 3 from tomato (SlOPR3), wild type (tomato) (UniProt Q9FEW9).
Assay [2] concerns the target SlOPR3 variant Y364P (tomato) (UniProt Q9FEW9).
For assay [3], the target named is SlOPR3 variant R283E (tomato) (UniProt Q9FEW9).

For “12-oxophytodienoate reductase 3 from tomato (SlOPR3), wild type (from UniProt Q9FEW9 1-396) (enzyme)”, the stoichiometry N in assay [1] was 2. “SlOPR3 variant Y364P (from UniProt Q9FEW9 1-396) (enzyme)”: in assay [2], the stoichiometry N came to 2.

Turning to “SlOPR3 variant R283E (from UniProt Q9FEW9 1-396) (enzyme)”, the stoichiometry N in assay [3] worked out at 2.

In general, stoichiometry N refers to the number of molecules, sites or subunits per partner or assembly.
